Test results as given in patent US7001748B2, “Methods of making polyketides using hybrid polyketide synthases” (The Board of Trustees of the Leland Stanford Junior …, priority 1999, dated 2006).

Columns and labels:
[1] = system: (5)M2+TE, (5)M5+TE, and (5)M6+TE; test: Diketide incorporation, statements made for all three modules together; format: biochemical; conditions: control studies, data not shown
Procedure: Qualitative Substrate Incorporation Assays. The reaction buffer for the diketide incorporation assays contained 400 mM NaH2PO4 (pH 7.2), 2.5 mM DTT, 1 mM ETDA, 20% glyercol (reaction buffer C). 1 μM module, 20 μM acyl-ACP, 500 μMDL-[2-^14C]-methylmalonyl CoA (ARC), and 4 mM NADPH (Sigma) were incubated in 20 μL of the reaction buffer at 30° C. for 1.5 h. The reactions were either spotted directly onto a TLC plate (Whatman 250 μM silica gel, UV254), or first extracted with EtOAc followed by spotting of the organic extracts on a TLC plate. The TLC plates were resolved using 60% EtOAc in hexanes, and the radioactive products were visualized on a Packard InstantImager.
Determination of kcat Values. […] To quench the reactions, 20 μL reaction aliquots were mixed with 80 μL of 12.5% SDS. kcat values for the acyl-ACP substrates were determined by measuring steady-state saturating rates at multiple substrate concentrations (varying from 40 to 90 μM 4). […]
Qualitative Assays of Diketide Incorporation by Acyl-ACPs. […] 2000, 122, 4847-4852 (It should be noted that elongation of 4c and 4d by modules 5+TE and 6+TE yielded minor quantities of unreduced triketide lactones, indicating less efficient β-ketoreductase activity on these two anti-diketide substrates than on the two syn-diketide substrates.). […]

[2] = biological target: T1, module 2+TE (Saccharopolyspora erythraea, UniProt Q03131+Q03133); conditions: diffusive loading, shown earlier; cited from earlier work
T1 construct: a single module of the DEBS PKS fused to the thioesterase (TE) termination region of module 6; made in house; host or cells: E. coli BL21(DE3) co-expressing B. subtilis sfp

[3] = biological target: T2, module 5+TE (Saccharopolyspora erythraea, UniProt Q03133); conditions: diffusive loading, shown earlier; cited from earlier work
T2 construct: a single module of the DEBS PKS fused to the thioesterase (TE) termination region of module 6; thioesterase (TE) domain of DEBS (end of the same DEBS3 polypeptide); made in house; host or cells: E. coli BL21(DE3) co-expressing B. subtilis sfp

[4] = biological target: T3, module 6+TE (Saccharopolyspora erythraea, UniProt Q03133, DEL53-1503); conditions: diffusive loading, shown earlier; cited from earlier work
T3 construct: a single module of the DEBS PKS fused to the thioesterase (TE) termination region of module 6; made in house; host or cells: E. coli BL21(DE3) co-expressing B. subtilis sfp

[5] = system: (5)M2+TE, (5)M5+TE, and (5)M6+TE; conditions: Wu et al. 2000; cited from earlier work
[6] = biological target: T4, (5)M3+TE (Saccharopolyspora erythraea, UniProt Q03132+Q03133); conditions: previously shown; cited from earlier work
T4 construct: (5)M3+TE: module 3 with N-terminal linker from module 5; N-terminal interpolypeptide linker of DEBS module 5 (start of DEBS3, Q03133); His6 (C); made in house; host or cells: E. coli BL21(DE3) co-expressing B. subtilis sfp

[7] = biological target: T5, (3)M3+TE (Saccharopolyspora erythraea, UniProt Q03132+Q03133); conditions: previously shown; cited from earlier work
T5 construct: encodes module 3 of DEBS (M3) with its own N-terminal linker and with the thioesterase fused to the C-terminus; natural N-terminal interpolypeptide linker of module 3 (start of DEBS2, ahead of the Module 3 feature); His6 (C); made in house; host or cells: E. coli BL21(DE3) co-expressing B. subtilis sfp

[8] = biological target: T6, M2 and M3+TE (Saccharopolyspora erythraea); test: Inhibition of tetraketide production by synthetic peptide, M2-M3 linker pair; format: biochemical; conditions: peptide 1 to 100 μM, 1.0 μM M2 and M3+TE
T6 construct: Plasmid pBP19 contains module 2 of DEBS (M2) and is a derivative of pRSG64; made in house; host or cells: E. coli BL21(DE3) co-expressing B. subtilis sfp
Procedure: (§1) Inhibition of Tetraketide Production. The ability of the synthetic peptide to inhibit the transfer reaction, and thus the production of tetraketide, was tested under the same reaction conditions described for the two module coincubations. The concentrations of M2 and M3+TE were both 1.0 μM, and the concentrations of M2(4) and (5)M3+TE were 0.5 and 1.0 μM, respectively. The only difference was the addition of the peptide at concentrations ranging from 1 to 100 μM to the assay containing M2 and M3+TE [or alternatively M2(4) and (5)M3+TE]. For greater accuracy, each inhibition assay was performed side by side with a control lacking inhibitor. The effect of the inhibitor was thus determined by dividing the inhibited rate by the control rate.

[9] = biological target: T7, M2(4) and (5)M3+TE (Saccharopolyspora erythraea, UniProt Q03131+Q03132); test: Inhibition of tetraketide production by synthetic peptide, M4-M5 linker pair; format: biochemical; conditions: peptide concentrations up to 100 μM
T7 construct: Plasmid pST179 encodes a derivative of M2 containing the C-terminal linker of DEBS module 4 (M4); made in house; host or cells: E. coli BL21(DE3) co-expressing B. subtilis sfp
Procedure: as §1

[10] = biological target: T8, individually assayed modules, including M3+TE (Saccharopolyspora erythraea, UniProt Q03132+Q03133); test: Effect of synthetic peptide on individually assayed modules; format: biochemical
T8 construct: encodes module 3 of DEBS (M3) with its own N-terminal linker and with the thioesterase fused to the C-terminus; natural N-terminal interpolypeptide linker of module 3 (start of DEBS2, ahead of the Module 3 feature); His6 (C); made in house; host or cells: E. coli BL21(DE3) co-expressing B. subtilis sfp
Procedure: In Vitro Polyketide Production. Assays of individual modules contained 1.0 μM protein, 1-10 mM N-acetylcysteamine thioester of the “natural” (2S,3R)-2-methyl-3-hydroxypentanoic acid diketide (NDK) (1), 4 mM NADPH, 440 mM sodium phosphate, 1 mM EDTA, 2.5 mM dithiothreitol (DTT), and 20% w/v glycerol, pH 7.2, in 80 μL. Reactions with M2 or M2(4) included 0.3 mM ^14C-methylmalonyl-CoA (specific activity adjusted to 10.4 mCi/mmol), and those with M3+TE or (5)M3+TE included 0.5 mM ^14C-methylmalonyl-CoA (specific activity reduced to 1.1 mCi/mmol). [M2(4) refers to a derivative of M2 in which the C-terminal linker has been replaced with its counterpart from module 4, whereas (5)M3 refers to a derivative of M3 in which the N-terminal linker has been replaced with its counterpart from module 5 (see FIG. 4).] Both concentrations of methylmalonyl-CoA were saturating, but different concentrations were needed due to the disparate rates of turnover between the modules with and without the thioesterase. The reaction mixtures were preincubated to 30° C. and started with the addition of the methylmalonyl-CoA. […] Product formation was quantified by comparison with standards of the labeled methylmalonyl-CoA. […]

[11] = CD spectroscopy of the M3 N-terminal peptide; format: physicochemical
Procedure: CD Spectroscopy. The CD spectrum of the M3 N-terminal peptide was recorded in a 1-mm path-length cell at a sample concentration of 100 μM in phosphate-buffered saline (PBS; 0.15 M KCl, 25 mM phosphate, pH 6.9). Measurements were made using an Aviv 62DS spectropolarimeter. Concentration was determined by tyrosine absorbance at 275 nm in 8 M guanidine hydrochloride.

[12] = listed as N-terminal linker of module 3
[13] = listed as synthetic peptide mimic of the N-terminal linker of M3

Compound: CCC(O)C(C)C(=O)SCCNC(=O)CCNC(=O)C(O)C(C)(C)COP(=O)(O)OP(=O)(O)OCC1OC(n2cnc3c(N)ncnc32)C(O)C1OP(=O)(O)O (stereo not drawn) [5a]
- CoA thioester compared with NAC thioester 2a as substrate [1]: approximately equivalent substrates

Compound: CCC(O)C(C)C(=O)SCCNC(C)=O (stereo not drawn) [2a]
- kcat, NAC thioester substrate [2]: 0.0767 s⁻¹
- kcat (elongation rate constant), NAC thioester substrate [3]: 0.00417 s⁻¹
- kcat, NAC thioester substrate [4]: 0.283 s⁻¹
- incorporation of NAC thioester (qualitative) [5]: substrates for the three modules
- incorporation of NAC thioester (qualitative) [6]: readily incorporated and elongated
- incorporation of NAC thioester (qualitative) [7]: readily incorporated and elongated

Compound: H2N-MTDSEKVAEYLRRATLDLRAARQRIRELESD-amide (H-MTDSEKVAEYLRRATLDLRAARQRIRELESD-NH2) [M3 N-term]
- inhibition of tetraketide lactone 2 formation [8, 12]: could inhibit the formation of 2
- inhibition of tetraketide lactone 2 formation ([8]; listed as peptide corresponding to the N-terminal linker of module 3): shown to inhibit the formation of tetraketide lactone 2
- inhibition of tetraketide lactone 2 formation [8, 13]: lowered the overall rate of tetraketide production in a dose-dependent fashion
- inhibition of tetraketide lactone 2 formation [9, 12]: No inhibitory effect
- inhibition of tetraketide lactone 2 formation [9, 13]: no such effect
- inhibitory effect upon individually assayed modules [10]: no inhibitory effect
- helical content ([11]; 100 μM in PBS pH 6.9, listed as N-terminal linker peptide of M3): approximately 50%
- helical content ([11]; 100 μM in PBS pH 6.9, listed as peptide mimic): ca. 50%
